Experimental findings from US20120003214A1 are described below.

Positions count from the first letter of the chain named.

Test [1] concerns the target apical membrane antigen-1 (AMA1) of Plasmodium falciparum, strain 3D7 (Plasmodium falciparum). The test is described as follows: ELISA, biosensor and protein bioarray.
Test [2] shares this target. The test is described as follows: protein bioarray.
Test [3] shares this target. Description: biosensor, purified proteins.
The target is the same in test [4]. The test is described as follows: not stated (screen of a random mutagenesis library against AMA1).

B1: VNAR 22A-2 (12Y-2 Thr39Ser; Pro90Leu) (VNAR)
VNAR: AWVDQTPRTATKETGESLTINCVLRDASFELKDTGWYRSKLGSTNEQSISIGGRYVETVNKGSKSFSLRISDLRVEDSGTYKCQAFYSLLLGDYNYSLLFRGEKGAGTALTVK
For B1, the fold better affinity than 14M-15 in test [1] was determined as 2 fold. For the same molecule, in test [2], the Kd (usually a measure of binding affinity in units of concentration) is 2.6 nM. In test [3], this molecule yielded a fold better affinity than 12Y-2 of 20 fold.

B2: VNAR 14M-8 (12Y-2 Phe100Leu) (VNAR)
VNAR: B1 VNAR with S39T, L90P, F100L
For B2, the fold enhanced affinity over the wild type 12Y-2 in test [4] worked out at 10 fold.

B3: VNAR 14M-15 (12Y-2 Pro90Leu variant) (VNAR)
VNAR: B1 VNAR with S39T
On to B3, for which, in test [2], the Kd stood at 6.5 nM. Further, the fold enhanced affinity over the wild type 12Y-2 in test [4] was 10 fold.
